What all share (assay): ELISA; plate coated with 2 ug/ml C3, C3b or recombinant C345C domain overnight at 4 °C; MI3 dilution series in PBST, 37 °C, 1 h; detected with HRP anti-His antibody (HRP anti-VHH antibody for the C345C domain)
Common to all, as to conditions: both partners purified

In assay [1] the target is T1, complement C3 (Homo sapiens (plasma-derived), UniProt P01024).
T1 construct: Bought protein; it works with normal human serum and anti-human detection antibodies; source: bought: Complement Technology (cat#A113)
T1 sequence (P01024 23-667): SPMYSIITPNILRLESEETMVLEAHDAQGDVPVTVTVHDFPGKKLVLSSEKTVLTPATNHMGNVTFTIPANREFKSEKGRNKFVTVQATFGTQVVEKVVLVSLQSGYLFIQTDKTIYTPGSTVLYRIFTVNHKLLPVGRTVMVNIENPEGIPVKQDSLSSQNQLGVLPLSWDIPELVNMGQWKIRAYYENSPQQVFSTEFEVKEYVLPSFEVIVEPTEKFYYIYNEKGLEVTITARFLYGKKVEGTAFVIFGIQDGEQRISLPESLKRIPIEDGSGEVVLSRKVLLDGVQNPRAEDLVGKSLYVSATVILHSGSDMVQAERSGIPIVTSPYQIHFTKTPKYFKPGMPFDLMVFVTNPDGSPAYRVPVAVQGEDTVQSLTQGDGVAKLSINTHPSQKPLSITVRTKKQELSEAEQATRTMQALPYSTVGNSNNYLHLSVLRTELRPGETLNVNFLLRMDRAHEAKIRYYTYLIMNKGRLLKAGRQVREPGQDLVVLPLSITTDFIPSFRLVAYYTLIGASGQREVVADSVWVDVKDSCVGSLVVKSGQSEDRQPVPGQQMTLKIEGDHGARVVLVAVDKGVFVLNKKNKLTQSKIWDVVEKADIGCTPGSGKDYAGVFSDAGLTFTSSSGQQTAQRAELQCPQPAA

The target of assay [2] is T2, complement C3b (Homo sapiens (plasma-derived), UniProt P01024).
T2 construct: Bought protein; source: bought: Complement Technology (cat#A114)
T2 sequence (P01024 23-667): as above

Assay [3] deals with T3, recombinant C345C domain of C3 and C3b (Homo sapiens).
T3 construct: C345C domain of complement C3; also called C345C domain (recombinant expression); source: HEK293-F, transfected (pCDNA3.1(+)), secreted, purified (Ni-NTA agarose, anion exchange GigaCap Q-650M)
T3 chain: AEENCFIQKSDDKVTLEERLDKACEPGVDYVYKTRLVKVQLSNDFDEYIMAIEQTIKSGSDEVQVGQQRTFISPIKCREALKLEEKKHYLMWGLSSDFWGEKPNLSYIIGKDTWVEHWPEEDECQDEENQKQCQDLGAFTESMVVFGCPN

B1: MI3 (nanobody) (VHH)
VHH: DVQLQESGGGLVQPGGSLRLSCVASGSTFSTYHMGWYRQAPGKQRELIAGITSGGRISYVDSVKGRFNISRDNAKNTVYLQMNTLKPEDTAVYYCNMLGEFAGRPPWGQGTQVTVSS
notes: proprietary nanobody; Provided by Quaerite Biopharm Research; source: HEK293-F, transfected (pCDNA3.1(+)), secreted, purified (Ni-NTA agarose, ion exchange GigaCap Q-650S); not shown: 6xHis (after a GGGGS linker), C-terminal, kept
In the case of B1, the EC50 – broadly, the concentration needed to bring the measured effect to its halfway point – worked out at 0.17 nM in assay [1], 0.14 nM in assay [2] and 0.19 nM in assay [3].

Values taken from publication PMC11910092, “Modulating the complement system through epitope-specific inhibition by complement C3 inhibitors” (The Journal of Biological Chemistry, 2025).
